# Data taken from patent EP4682164A1 (Curogen Technology Co., Ltd., dated 2026).
# B1: IL-17RA/RC-Fc-mTNFR2 (T1-mT4-35) (Fc fusion)
# chain: LRLLDHRAPVCSQPGLNCTVKNSDCLDDSWIHPRNLTPSSPKDLQIQLHFAHTQQGDLVPVAHIEWTLQTDASILYLEGAELSVLQLDTNERLCVRFEFLSKLRHHHRRWRFTFSHFVVDPGQEYEVTVHHLPKPIPDGDPNHQSKNFLVPDCEHPRMKVTTPCMSSALPWLNVSADGDNVHLVLNVSEEQHFGLSLYWNQVQGPPKPRWHKNLTGPQIITLNHTDLVPCLCIQVWPLEPDSVRTNICPFREDPRAHQNLWQAARLRLLTLQSWLLDAPCSLPAEAALCWRAPGGDPCQPLVPPLSWENVTVDKVLEFPLLKGHPNLCVQVNSSEKLQLQECLWADSLGPLKDDVLLLETRGPQDNRSLCALEPSGCTSLPSKASTRAARLGEYLLQDLQSGQCLQLWDDDLGALWACPMDKYIHKTGIEGRMDRNTGRGGEEKKKEKEKEEQEERETKTPECPSHTQPLGVFLFPPKPKDTLMISRTPEVTCVVVDVSQEDPEVQFNWYVDGVEVHNAKTKPREEQFNSTYRVVSVLTVLHQDWLNGKEYKCKVSNKGLPSSIEKTISKAKGQPREPQVYTLPPSQEEMTKNQVSLTCLVKGFYPSDIAVEWESNGQPENNYKTTPPVLDSDGSFFLYSRLTVDKSRWQEGNVFSCSVMHEALHNHYTQKSLSLSLGKGGGGSGGGGSGGGGSLEVPAQVVLTPYKPEPGYECQISQEYYDRKAQMCCAKCPPGQYVKHFCNKTSDTVCADCEASMYTQVWNQFRTCLSCSSSCTTDQVEIRACTKQQNRVCACEAGRYCALKTHSGSCRQCMRLSKCGPGFGVASSRAPNGNVLCKACAPGTFSDTTSSTDVCRPHRICSILAIPGNASTDAVCAPESPTLSAIPRTLYVSQPEPTRSQPLDQEPGPSQTPSILTSLGSTPIIEQSTKGG
# notes: The hTNFR2 ECD is replaced by the mouse TNFR2 ECD; also called hT1-mT4-35; T1-T4-35
# Key:
# Assay in all cases: ELISA as in Example 8, cytokine coated on plate
# [1] = molecular target: T1, human IL-17A (IL-17AA homodimer) (human, UniProt Q16552 20-155, limits assumed)
# T1 construct: also called hIL-17A; hIL-17AA
# murine TNFα = molecular target: T2, murine TNFα (mouse, UniProt P06804 80-235)
# T2 construct: also called mTNFα; mouse TNFα
# T2 sequence (looked up): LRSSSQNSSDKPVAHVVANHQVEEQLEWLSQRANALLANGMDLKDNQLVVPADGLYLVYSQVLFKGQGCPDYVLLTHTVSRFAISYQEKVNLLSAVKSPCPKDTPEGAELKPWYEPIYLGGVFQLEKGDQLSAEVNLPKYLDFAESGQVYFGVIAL
# [2] = molecular target: T3, human IL-17F (IL-17FF homodimer) (human, UniProt Q96PD4 31-163)
# T3 construct: also called hIL-17F; hIL-17FF
# T3 sequence (looked up): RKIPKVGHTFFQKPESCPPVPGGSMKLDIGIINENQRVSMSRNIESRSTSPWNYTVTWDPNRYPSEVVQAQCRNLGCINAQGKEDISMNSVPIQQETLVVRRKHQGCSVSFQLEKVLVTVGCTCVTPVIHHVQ
# T1 sequence (Q16552 20-155 limits assumed): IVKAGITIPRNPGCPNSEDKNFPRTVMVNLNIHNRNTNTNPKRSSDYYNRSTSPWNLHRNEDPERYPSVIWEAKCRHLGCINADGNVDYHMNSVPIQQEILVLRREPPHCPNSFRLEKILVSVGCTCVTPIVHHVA
binder,measurement,setting,value
B1,EC50,[1],0.0803 µg/mL
same,EC50,murine TNFα,0.071 µg/mL
same,EC50,[2],0.0907 µg/mL
